Tested on: Naïve CD4 T-cells
Assay: In vitro T-cell differentiation in DC conditioned medium, IL-17/IL-10 in supernatants by ELISA
Type: cell-based, C57BL/6J mice
Details: IL-6 supplemented to DCCM-apoptotic B-cells
Experimental: Bone marrow (BM)-derived GM-CSF DC cultures were grown in RPMI supplemented with GM-CSF and 5% foetal bovine serum (FBS), plus 100 μg/mL penicillin, 100 μg/mL streptomycin, 2 mM L-glutamine, 10 mM HEPES, 1 nM sodium pyruvate, 1×MEM nonessential amino acids, and 2.5 μM β-mercaptoethanol (all from Sigma-Aldrich, St. Louis, Mo.), as previously dcseribed^1. Semi-adherent cells were harvested on ice on day 5 and re-plated immediately in fresh GM-CSF medium at 1×10^6 cells/well in 24-well tissue culture-treated plates. Soluble or phagocytic stimuli were added right away to the plates in the same medium and the cells were centrifuged for 2 min at 2000 rpm. Supernatants (conditioned medium, CM) were collected after 18 hours. LPS (from E. coli, serotype 055:B5, L-2880) was purchased from Sigma-Aldrich. BMDC were treated with various doses of soluble LPS or 2:1 A20 LPS blasts:DC to titrate the LPS such that levels of IL-6 produced by DC in response to these stimuli was similar. Soluble LPS was used at a final concentration of 1 ng/mL. The A20 B-cell line was obtained from the ATCC (TIB-208). A20 LPS blasts were prepared by culturing A20 cells at 1×10^6 cells/mL, 3 mL/well in 6-well tissue culture plates for four days in RPMI medium supplemented with 10% FBS, with 100 μg/mL penicillin, 100 μg/mL streptomycin, 2 mM L-glutamine, 10 mM HEPES, 1 nM sodium pyruvate, plus 25 μg/mL LPS, as previously described in Blander, J. M. and Medzhitov, R. (2004) Science 304(5673):1014. […] Cells were centrifuged, counted, and apoptosis was induced by UV irradiation at 350 mJ. […]
Naïve CD4 T cells were isolated first by sorting with MACS® CD4^+ beads (Miltenyi Biotech, Auburn, Calif.) according to manufacturer's instructions and then by fluorescence activated cell sorting (FACS) using a MoFlo™, Vantage, or Influx™ cell sorter for CD25^−CD44^lowCD62L^high cells using allophycocyanin (APC)-conjugated anti-CD25 monoclonal antibody (mAb) (clone PC61.5), FITC-conjugated CD62L mAb (clone MEL-14), and PE-Cy5-conjugated CD44 mAb (clone IM7) (all from eBioscience™, San Diego, Calif.). […]

B1: IL-6: cytokine interleukin-6 (Peprotech), 50 ng/mL (protein, UniProt P08505 25-211, looked up)
Interleukin-6: FPTSQVRRGDFTEDTTPNRPVYTTSQVGGLITHVLWEIVEMRKELCNGNSDCMNNDDALAENNLKLPEIQRNDGCYQTGYNQEICLLKISSGLLEYHSYLEYMKNNLKDNKKDKARVLQRDTETLIHIFNQEVKDLHKIVLPTPISNALLTDKLESQKEWLRTKTIQFILKSLEEFLKVTLRSTRQT
IL-17 production: restored IL-17 production

Reference: patent US8628762B2, “T-helper cell type 17 lineage-specific adjuvants, compositions and methods” (Icahn School of Medicine at Mount Sinai, priority 2008, dated 2014)
